{
  "source": "patent US20100204104A1",
  "key": {"[1]": {"molecular_target": "TGF-β1 (UniProt P01137)", "sequence (P01137 279-390 limits assumed)": "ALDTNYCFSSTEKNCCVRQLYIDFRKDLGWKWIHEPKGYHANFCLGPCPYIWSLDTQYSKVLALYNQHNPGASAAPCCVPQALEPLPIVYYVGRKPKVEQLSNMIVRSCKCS", "assay": "cell-based or functional assay"}, "[2]": {"molecular_target": "T1, TGF-β3 (UniProt P10600)", "T1 sequence (looked up)": "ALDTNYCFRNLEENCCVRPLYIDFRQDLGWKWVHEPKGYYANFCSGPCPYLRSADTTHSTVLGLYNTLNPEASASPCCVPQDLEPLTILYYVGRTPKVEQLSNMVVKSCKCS", "assay": "cell-based or functional assay"}, "[3]": {"molecular_target": "TGF-β1 (UniProt P01137)", "assay": "SPR (Biacore), TGF-β1 on chip, HEK 293-produced sRII-9Gly 1.2-90 nM injected, 1:1 model"}, "[4]": {"molecular_target": "TGF-β1 (UniProt P01137)", "assay": "SPR (Biacore), TGF-β1 on chip, CHO-produced sRII-9Gly (lot 1) 1.2-90 nM injected, 1:1 model"}, "[5]": {"molecular_target": "TGF-β1 (UniProt P01137)", "assay": "SPR (Biacore), TGF-β1 on chip, CHO-produced sRII-9Gly (lot 2) 1.2-90 nM injected, 1:1 model"}, "[6]": {"molecular_target": "T1, TGF-β3", "assay": "SPR (Biacore), TGF-β3 on chip, CHO-produced sRII-9Gly (lot 1) 1.2-90 nM injected, 1:1 model"}, "[7]": {"molecular_target": "T1, TGF-β3", "assay": "SPR (Biacore), TGF-β3 on chip, HEK 293-produced sRII-9Gly 1.2-90 nM injected, 1:1 model"}, "[8]": {"molecular_target": "T1, TGF-β3", "assay": "SPR (Biacore), TGF-β3 on chip, CHO-produced sRII-9Gly (lot 2) 1.2-90 nM injected, 1:1 model"}},
  "data": [
    {"binder": "sRII-9Gly fusion protein (receptor) IPPHVQKSVNNDMIVTDNNGAVKFPQLCKFCDVRFSTCDNQKSCMSNCSITSICEKPQEVCVAVWRKNDENITLETVCHDPKLPYHDFILEDAASPKCIMKEKKKPGETFFMCSCSSDECNDNIIFSEEYNTSNPDLHMGGGGGGGGGIDIPPHVQKSVNNDMIVTDNNGAVKFPQLCKFCDVRFSTCDNQKSCMSNCSITSICEKPQEVCVAVWRKNDENITLETVCHDPKLPYHDFILEDAASPKCIMKEKKKPGETFFMCSCSSDECNDNIIFSEEYNTSNPDL", "values": [
      {"measurement": "IC50 (nM), A549/IL-11 cell bioassay, CHO-produced sRII-9Gly Lot 9", "setting": "[1]", "value": 0.02, "unit": "nM"},
      {"measurement": "IC50 (nM), A549/IL-11 cell bioassay, CHO-produced sRII-9Gly Lot 10", "setting": "[1]", "value": 0.018, "unit": "nM"},
      {"measurement": "IC50 (nM), A549/IL-11 cell bioassay, CHO-produced sRII-9Gly Lot 11", "setting": "[1]", "value": 0.014, "unit": "nM"},
      {"measurement": "IC50 (nM), A549/IL-11 cell bioassay, CHO-produced sRII-9Gly Lot 12", "setting": "[1]", "value": 0.015, "unit": "nM"},
      {"measurement": "IC50 (nM), A549/IL-11 cell bioassay, CHO-produced sRII-9Gly Lot 13", "setting": "[1]", "value": 0.016, "unit": "nM"},
      {"measurement": "IC50 (nM), A549/IL-11 cell bioassay, sRII-9Gly Lot 4", "setting": "[1]", "value": 0.039, "unit": "nM"},
      {"measurement": "IC50 (nM), A549/IL-11 cell bioassay, sRII-9Gly Lot 5", "setting": "[1]", "value": 0.053, "unit": "nM"},
      {"measurement": "IC50 (nM), A549/IL-11 cell bioassay, sRII-9Gly Lot 6 (pH 7.0)", "setting": "[1]", "value": 0.054, "unit": "nM"},
      {"measurement": "IC50 (nM), A549/IL-11 cell bioassay, sRII-9Gly Lot 7 (pH 8.5)", "setting": "[1]", "value": 0.062, "unit": "nM"},
      {"measurement": "IC50 (nM), A549/IL-11 cell bioassay, sRII-9Gly Lot 8 (pH 9.0)", "setting": "[1]", "value": 0.047, "unit": "nM"},
      {"measurement": "IC50 (ng/ml), A549/IL-11 cell bioassay, sRII-9Gly Lot 4", "setting": "[1]", "value": 1.34, "unit": "ng/mL"},
      {"measurement": "IC50 (ng/ml), A549/IL-11 cell bioassay, sRII-9Gly Lot 5", "setting": "[1]", "value": 1.8, "unit": "ng/mL"},
      {"measurement": "IC50 (ng/ml), A549/IL-11 cell bioassay, sRII-9Gly Lot 6 (pH 7.0)", "setting": "[1]", "value": 1.82, "unit": "ng/ml"},
      {"measurement": "IC50 (ng/ml), A549/IL-11 cell bioassay, sRII-9Gly Lot 7 (pH 8.5)", "setting": "[1]", "value": 2.12, "unit": "ng/ml"},
      {"measurement": "IC50 (ng/ml), A549/IL-11 cell bioassay, sRII-9Gly Lot 8 (pH 9.0)", "setting": "[1]", "value": 1.59, "unit": "ng/ml"},
      {"measurement": "IC50 (nM), A549/IL-11 cell bioassay, CHO-produced sRII-9Gly Lot 9", "setting": "[2]", "value": 0.035, "unit": "nM"},
      {"measurement": "IC50 (nM), A549/IL-11 cell bioassay, CHO-produced sRII-9Gly Lot 10", "setting": "[2]", "value": 0.29, "unit": "nM"},
      {"measurement": "IC50 (nM), A549/IL-11 cell bioassay, CHO-produced sRII-9Gly Lot 11", "setting": "[2]", "value": 0.008, "unit": "nM"},
      {"measurement": "IC50 (nM), A549/IL-11 cell bioassay, CHO-produced sRII-9Gly Lot 12", "setting": "[2]", "value": 0.07, "unit": "nM"},
      {"measurement": "IC50 (nM), A549/IL-11 cell bioassay, CHO-produced sRII-9Gly Lot 13", "setting": "[2]", "value": 0.018, "unit": "nM"},
      {"measurement": "Kd", "setting": "[3]", "value": 8.2, "unit": "nM"},
      {"measurement": "koff", "setting": "[3]", "value": 0.0011, "unit": "s⁻¹"},
      {"measurement": "Kd", "setting": "[4]", "value": 6.3, "unit": "nM"},
      {"measurement": "koff", "setting": "[4]", "value": 0.00117, "unit": "s⁻¹"},
      {"measurement": "Kd", "setting": "[5]", "value": 9.8, "unit": "nM"},
      {"measurement": "koff", "setting": "[5]", "value": 0.0011, "unit": "s⁻¹"},
      {"measurement": "Kd", "setting": "[6]", "value": 5, "unit": "nM"},
      {"measurement": "koff", "setting": "[6]", "value": 0.00131, "unit": "s⁻¹"},
      {"measurement": "Kd", "setting": "[7]", "value": 2.1, "unit": "nM"},
      {"measurement": "koff", "setting": "[7]", "value": 0.00034, "unit": "s⁻¹"},
      {"measurement": "Kd", "setting": "[8]", "value": 6.8, "unit": "nM"},
      {"measurement": "koff", "setting": "[8]", "value": 0.00085, "unit": "s⁻¹"}
    ]}
  ]
}
